Experimental data from patent US20070048268A1 (ZymoGenetics, published 2007).

Target: biotinylated murine IL-21 (murine, UniProt Q9ES17 18-146)
Experiment: flow cytometry on MOLT-13, HuT-78, HuT-102, DEL and YT cells, 40 ng/ml to 1000 ng/ml, Streptavidin-PE
Experimental: Cells were analyzed on a FACSScan using CellQuest software (Becton Dickinson, Mountain View, Calif.).

- binding result: binds
B1: human IL-21 receptor (receptor)
chain: not shown
notes: also called zalpha11 receptor; zalpha11
